Two substances from article PMC10294653 can be followed below.

Holding throughout (assay): two-hybrid; bacterial two hybrid (BACTH): T18 and T25 adenylate cyclase fusions in E. coli BTH101 (cya mutant); beta-galactosidase assay in Miller units; cultures grown overnight at 26°C, subcultured in LB, 37°C for 30 min
Assay [1] addresses T25 fusion to the N terminus of Wzc (K. pneumoniae (strain KPPR1S)).
Assay [2] has as its target T25 fusion to the N terminus of Wzb (K. pneumoniae (strain KPPR1S)).
The target in assay [3] is T25 fusion to the N terminus of WcaJ (K. pneumoniae (strain KPPR1S)).
The target in assay [4] is leucine zipper (zip) domain, positive control of the bacterial two-hybrid system.
Assay [5] has the same target. The source holds these as a separate data set.

Like-named read-outs stand apart in the source and are kept apart here. Some results are limits rather than exact numbers.

As to RmpD-T18 (natural protein), in assay [1], the beta-galactosidase activity amounted to 2150 Miller units. The beta-galactosidase activity relative to the zip-zip controls (% of the zip-zip controls) in assay [2] and in assay [3] was below 10 throughout.

Turning to “leucine zipper (zip) domain, positive control of the bacterial two-hybrid system (domain or fragment)”, the figures for the beta-galactosidase activity in assay [4] and in assay [5] were 1740 Miller units and 1530 Miller units, respectively.
